Source: the supplement of paper PMC10724198
± gives the standard deviation of the averaged measurements.

Test system: Saccharomyces cerevisiae
Assay: protein stability index of tFT-peptide fusion (C-terminal peptide) (PSI (0-1 scale)); higher = more stable (slower turnover)
Conditions: genetic background: wild type; temperature: 30 C
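Further: PSI is a weighted mean of sequencing reads over stability bins, variants kept only with over 10 reads, mCherry proximal and sfGFP distal, peptide attached via GGGS linker.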

| Sequence | protein stability index |
| --- | --- |
| LLPPFPPPSLFS | 0.667 ± 0.01 |
| VYMWFVDSPGGS | 0.682 ± 0.037 |
| TLPEVELTRQPI | 0.747 ± 0.014 |
| DSGRRVTLLVFV | 0.594 ± 0.041 |
| KKEQIKINIKGK | 0.693 ± 0.03 |
| VCLPPPPLPPSC | 0.692 ± 0.041 |
| RGDHPAAGFPCG | 0.686 ± 0.033 |
| GGGGGLVGGCVA | 0.696 ± 0.081 |
| GDDVGTEVIVET | 0.684 ± 0.0094 |
| AKEENQRKYTRR | 0.637 ± 0.13 |
| SSTSPPPVTPPD | 0.625 ± 0.0096 |
| PDCVLSDENDAG | 0.658 ± 0.0076 |
| KHSMGSFNNILN | 0.6674 ± 0.0032 |
| RDQPPPLPFTRP | 0.712 ± 0.1 |
| HLVLIHPTQTLN | 0.634 ± 0.045 |
| KDRVGYKEIITG | 0.695 ± 0.028 |
| PPPDPPRHGRPE | 0.684 ± 0.035 |
| GGDWVVVALLGV | 0.596 ± 0.017 |
| LERSSHRTEFLS | 0.587 ± 0.032 |
| ELEIKGRRQIKT | 0.666 ± 0.055 |
| CPHSLDTFVSKF | 0.704 ± 0.066 |
| WVGRGGAVENKV | 0.718 ± 0.03 |
| ERGSGSVPGGRD | 0.649 ± 0.035 |
| KKGRRERRITNE | 0.695 ± 0.013 |
| PLWVFFRFSPNL | 0.662 ± 0.01 |
| WWSAHIRAGASL | 0.672 ± 0.017 |

| Sequence | protein stability index |
| --- | --- |
| GGRTFHPLWGTT | 0.735 ± 0.029 |
| FFLGGGVGLVLV | 0.528 ± 0.053 |
| LHPPLPPLPFSA | 0.679 ± 0.017 |
| VWVGSLWEHPTV | 0.781 ± 0.17 |
| GKLRTVVCMCYI | 0.643 ± 0.1 |
| GFDFLHHIVASS | 0.728 ± 0.017 |
| VVPDVGVVTSPA | 0.649 ± 0.072 |
| GARGRGLVTESA | 0.703 ± 0.035 |
| DLGVCCLLGDFG | 0.577 ± 0.0072 |
| TDWGLTPRGRVT | 0.777 ± 0.062 |
| RKASQEQYHQRH | 0.648 ± 0.05 |
| GCHRRDALRTGD | 0.667 ± 0.053 |
| HVPGGRADMTRS | 0.706 ± 0.0097 |
| RHTARQSTTWRG | 0.695 ± 0.071 |
| VAVRARRWASGP | 0.727 ± 0.055 |
| SGGTDMLALRVR | 0.632 ± 0.062 |
| TLPPPPLSTPTL | 0.643 ± 0.1 |
| VPMVFSIYFGVS | 0.563 ± 0.012 |
| AGRLEGGRRWRV | 0.69 ± 0.031 |
| PRPLPVCTDVHD | 0.642 ± 0.019 |
| EVLQGNHHPRPE | 0.716 ± 0.019 |
| WLFGSFSLLFWL | 0.522 ± 0.015 |
| SPPLGFAPPSRS | 0.853 ± 0.046 |
| QKPKDYTEDKRD | 0.718 ± 0.11 |
| GLDVFFPMDRQA | 0.764 ± 0.08 |
| LVVWSSIVSGGG | 0.675 ± 0.05 |

| Sequence | protein stability index |
| --- | --- |
| EHCGRGMGSGAA | 0.673 ± 0.012 |
| FLPRLSASSSLC | 0.728 ± 0.015 |
| VYYRRFTGGGLY | 0.583 ± 0.016 |
| LRLTCRPWGLFF | 0.6377 ± 0.0051 |
| VGSLRAGYFLRL | 0.637 ± 0.043 |
| SGSPVFLDPPLS | 0.698 ± 0.015 |
| GTKGGPSGLEPP | 0.7125 ± 0.0018 |
| TPNKKTGNQYPG | 0.685 ± 0.038 |
| SPTPINALRPPT | 0.695 ± 0.032 |
| GSLGWRGLVRFF | 0.611 ± 0.013 |
| SPPPISIYPPFR | 0.668 ± 0.024 |
| TLGSSTPFPCFP | 0.716 ± 0.059 |
| CRLRHPFPLSTR | 0.644 ± 0.052 |
| FFSFVVPCFFFC | 0.513 ± 0.022 |
| ASTMAVLDYAPA | 0.621 ± 0.0083 |
| IFWGFSFRGWAC | 0.656 ± 0.0067 |
| KKKKKKRQKNTK | 0.691 ± 0.03 |
| VSRGRVKETGEE | 0.713 ± 0.038 |
| NESSASKEKSNI | 0.69 ± 0.038 |
| GGTPGSYDIIGV | 0.728 ± 0.016 |
| SPPSPRLPPPLL | 0.77 ± 0.046 |
| RRAPLRNTSRHR | 0.663 ± 0.021 |
| HVRARLVVHQRA | 0.631 ± 0.047 |
| MWLGSGCWVNGL | 0.735 ± 0.048 |
| ILRSVIFMDACV | 0.629 ± 0.018 |
| PRLSLPSAPPRP | 0.732 ± 0.08 |

| Sequence | protein stability index |
| --- | --- |
| LDGIKVKFRRSL | 0.698 ± 0.013 |
| EREKKNKKGGCQ | 0.69 ± 0.018 |
| PLPQVLYPPPPS | 0.6905 ± 0.0045 |
| GQTMDLRKCTGP | 0.6436 ± 0.0037 |
| AHLPHSSFSWRP | 0.707 ± 0.05 |
| SVSMEGCVSVRG | 0.7009 ± 0.0036 |
| AGTVGRGVSGGR | 0.5746 ± 0.0044 |
| FLFASYFLENQR | 0.766 ± 0.13 |
| FVYHGLVGKRMV | 0.666 ± 0.051 |
| AGLPGSSFWWVF | 0.682 ± 0.058 |
| IICSKLHSPLVV | 0.509 ± 0.031 |
| RQDRTFEIQGWE | 0.697 ± 0.084 |
| RVLSAASATRMT | 0.619 ± 0.013 |
| PPLPPTLSSIVI | 0.599 ± 0.021 |
| KKNEKKNRKKKN | 0.71 ± 0.022 |
| FSQNFVSTGFRL | 0.702 ± 0.028 |
| FCGDFGGAYGLW | 0.706 ± 0.047 |
| PPPPPRPSPRPS | 0.796 ± 0.013 |
| GRRGPGRARRWG | 0.658 ± 0.037 |
| PSGVKILFELKP | 0.645 ± 0.03 |
| SQTEAGSICTLP | 0.676 ± 0.05 |
| SFPPPLPPSPTP | 0.697 ± 0.036 |
| WSLGLVGRGFWG | 0.73 ± 0.11 |
